Laboratory results as given in patent US20260109782A1 (Chugai, published 2026).

How the values were obtained:
Experiment in all cases: cell-based or functional assay
[1] = target: coagulation factor IX / activated coagulation factor IX (human), P00740
[2] = target: human Factor X (Enzyme Research Laboratories, Inc.) (human, UniProt P00742 41-488)
[3] = target: coagulation factor IX / activated coagulation factor IX (human) (UniProt P00740)
coagulation factor IX / activated coagulation factor IX (human), sequence (P00740 47-461): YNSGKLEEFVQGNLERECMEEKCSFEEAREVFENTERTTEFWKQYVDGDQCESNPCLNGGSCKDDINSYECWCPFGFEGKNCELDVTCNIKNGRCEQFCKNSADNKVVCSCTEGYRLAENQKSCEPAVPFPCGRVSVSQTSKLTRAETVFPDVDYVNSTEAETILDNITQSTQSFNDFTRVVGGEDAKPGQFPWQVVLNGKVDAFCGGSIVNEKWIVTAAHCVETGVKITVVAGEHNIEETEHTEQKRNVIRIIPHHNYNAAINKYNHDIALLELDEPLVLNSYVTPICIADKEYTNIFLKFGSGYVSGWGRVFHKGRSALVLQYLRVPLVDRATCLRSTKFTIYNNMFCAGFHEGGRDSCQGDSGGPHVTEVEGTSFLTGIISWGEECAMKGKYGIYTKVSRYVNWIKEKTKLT

human Factor X (Enzyme Research Laboratories, Inc.), sequence (P00742 other isoform, or with tags, fused parts or gaps limits assumed): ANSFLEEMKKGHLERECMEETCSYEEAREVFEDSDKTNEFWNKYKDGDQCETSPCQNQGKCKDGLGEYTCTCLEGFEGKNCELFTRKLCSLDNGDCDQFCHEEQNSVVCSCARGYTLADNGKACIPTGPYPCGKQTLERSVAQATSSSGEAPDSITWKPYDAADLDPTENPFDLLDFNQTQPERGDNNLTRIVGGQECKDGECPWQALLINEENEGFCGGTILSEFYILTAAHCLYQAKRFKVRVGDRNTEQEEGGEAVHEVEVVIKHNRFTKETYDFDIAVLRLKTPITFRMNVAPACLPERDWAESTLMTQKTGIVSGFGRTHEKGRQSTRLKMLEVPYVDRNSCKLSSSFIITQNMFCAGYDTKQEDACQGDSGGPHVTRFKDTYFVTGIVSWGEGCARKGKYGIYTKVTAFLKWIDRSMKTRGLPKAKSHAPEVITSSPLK
coagulation factor IX / activated coagulation factor IX (human), P00740, sequence (P00740 47-461): as the sequence (P00740 47-461) above

| Binder | reduction of coagulation time against no antibody [1] | reduction of coagulation time against no antibody [2] | reduction of coagulation time against no antibody [3] |
| --- | --- | --- | --- |
| commonly shared L chain antibody of A44 H chain, B26 H chain and hybrid L chain BBA(G) (bispecific antibody, V domains shown) VH 1: MQVQLQQSGAELAKPGASVKLSCKASGYTFTSSWMHWIKQRPGQGLEWLGYINPSSGYTKYNRKFRDKATLTADKSSSTAYMQLTSLTYEDSAVYYCARGGNGYYFDYWGQGTTLTVSS VH 2: MQVQLQQSGPELVKPGASVKISCKASGYTFTDNNMDWVKQSHGKGLEWIGDINTKSGGSIYNQKFKGKATLTIDKSSSTAYMELRSLTSEDTAVYYCARRRSYGYYFDYWGQGTTLTVSS VL: DIVMTQSHKFMSTSVGDRVSITCKASQNVGTAVAWYQQKPGQSPKLLIYSASYRYSGVPDRFTGSRYGTDFTLTISNVQSEDLADYLCQQYSNYITFGGGTKLELKRG | > 70 s | – | – |
| chimeric bispecific antibody (A69/B26/BBA) (bispecific antibody, V domains shown) VH 1: MEVQLQQSGAELVKPGASVKLSCTASGFNIKDYYMHWIKQRPGQGLEWLGYINPSSGYTKYNRKFRDKATLTADKSSSTAYMQLTSLTYEDSAVYYCARGGNGYYLDYWGQGTTLTVSS VH 2: MQVQLQQSGPELVKPGASVKISCKASGYTFTDNNMDWVKQSHGKGLEWIGDINTKSGGSIYNQKFKGKATLTIDKSSSTAYMELRSLTSEDTAVYYCARRRSYGYYFDYWGQGTTLTVSS VL: DIVMTQSHKFMSTSVGDRVSITCKASQNVGTAVAWYQQKPGQSPKLLIYSASYRYSGVPDRFTGSRYGTDFTLTISNVQSEDLADYLCQQYSNYITFGGGTKLELKR | > 80 s | ≥ 80 s | – |
| commonly shared L chain antibody of A44 H chain, B26 H chain and hybrid L chain ABA(G) (bispecific antibody, V domains shown) VH 1: MQVQLQQSGAELAKPGASVKLSCKASGYTFTSSWMHWIKQRPGQGLEWLGYINPSSGYTKYNRKFRDKATLTADKSSSTAYMQLTSLTYEDSAVYYCARGGNGYYFDYWGQGTTLTVSS VH 2: MQVQLQQSGPELVKPGASVKISCKASGYTFTDNNMDWVKQSHGKGLEWIGDINTKSGGSIYNQKFKGKATLTIDKSSSTAYMELRSLTSEDTAVYYCARRRSYGYYFDYWGQGTTLTVSS VL: DIVMTQSHKFMSTSVGDRVSITCKASQDVGTAVAWYQQKPGQSPKLLIYSASYRYSGVPDRFTGSRYGTDFTLTISNVQSEDLADYLCQQYSNYITFGGGTKLELKRG | > 60 s | ≥ 60 s | – |
| A44/B26 (bispecific antibody, V domains shown) VH 1: MQVQLQQSGAELAKPGASVKLSCKASGYTFTSSWMHWIKQRPGQGLEWLGYINPSSGYTKYNRKFRDKATLTADKSSSTAYMQLTSLTYEDSAVYYCARGGNGYYFDYWGQGTTLTVSS VL 1: DIVMTQSHKFMSTSVGDRVSITCKASQDVGTAVAWYQQKPGQSPKLLIYWASTRHTGVPDRFTGSRYGTDFTLTISNVQSEDLADYLCQQYSNYITFGGGTKLELKR VH 2: MQVQLQQSGPELVKPGASVKISCKASGYTFTDNNMDWVKQSHGKGLEWIGDINTKSGGSIYNQKFKGKATLTIDKSSSTAYMELRSLTSEDTAVYYCARRRSYGYYFDYWGQGTTLTVSS VL 2: DIVLTQSQKFMSTSVGDRVSITCKASQNVGTAVAWYQQKPGQSPKALIYSASYRYSGVPDRFTGSGSGTDFTLTISNVQSEDLAEYFCQQYNSYPLTFGAGTKLEIKR | – | ≥ 50 s | > 50 s |
| bispecific antibody of A69H, B26H and hybrid L chain BBa (bispecific antibody, V domains shown) VH 1: MEVQLQQSGAELVKPGASVKLSCTASGFNIKDYYMHWIKQRPGQGLEWLGYINPSSGYTKYNRKFRDKATLTADKSSSTAYMQLTSLTYEDSAVYYCARGGNGYYLDYWGQGTTLTVSS VH 2: MQVQLQQSGPELVKPGASVKISCKASGYTFTDNNMDWVKQSHGKGLEWIGDINTKSGGSIYNQKFKGKATLTIDKSSSTAYMELRSLTSEDTAVYYCARRRSYGYYFDYWGQGTTLTVSS VL: DIVMTQSHKFMSTSIGDRVSITCKASQNVGTAVAWYQQKPGQSPKLLIYSASYRYSGVPDRFTGSRYGTDFTLTISNVQSEDLADYLCQQYSSYLTFGGGTKLELKR | > 80 s | ≥ 80 s | – |
